Test results from the supplement of paper PMC12338614.
± gives the uncertainty stated by the source.

B1: library; numbered along this chain (parent)
chain: MEVVDPQQLGMFTEGELMSVGMDTFIHRIDSTEVIYQPRRKRAKLIGKYLMGDLLGEGSYGKVKEVLDSETLCRRAVKILKKKKLRRIPNGEANVKKEIQLLRRLRHKNVIQLVDVLYNEEKQKMYMVMEYCVCGMQEMLDSVPEKRFPVCQAHGYFCQLIDGLEYLHSQGIVHKDIKPGNLLLTTGGTLKISDLGVAEALHPFAADDTCRTSQGSPAFQPPEIANGLDTFSGFKVDIWSAGVTLYNITTGLYPFEGDNIYKLFENIGKGSYAIPGDCGPPLSDLLKGMLEYEPAKRFSIRQIRQHSWFRKKHPPAEAPVPIPPSPDTKDRWRSMTVVPYLEDLHGADEDEDLFDIEDDIIYTQDFTVPGQVPEEEASHNGQRRGLPKAVCMNGTEAAQLSTKSRAEGRAPNPARKACSASSKIRRLSACKQQ

Variants of: B1
Test: STK11 functional score (HeLa growth suppression), rescaled enrichment; synonymous median = 1, nonsense median = 0 (normalised score)
Conditions: with HeLa; variant type: missense
In short: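 Functional scores are post/pre-selection log ratios corrected to wild type, rescaled to synonymous and nonsense medians, merged over codons and replicate transfections, and given bootstrapped error. They come from POPCode libraries of codon-optimised STK11 integrated by Bxb1 at an AAVS1 landing pad in HeLa, three regions each transfected three times, with BFP-negative, mCherry-positive integrants sorted by FACS and tiled gDNA amplicons sequenced on NextSeq.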

MEVVDPQQLGMFTEGELMSVGMDTFIHRIDSTEVIYQPRRKRAKLIGKYLMGDLLGEGSYGKVKEVLDSETLCRRAVKILKKKKLRRIPNGEANVKKEIQLLRRLRHKNVIQLVDVLYNEEKQKMYMVMEYCVCGMQEMLDSVPEKRFPVCQAHGYFCQLIDGLEYLHSQGIVHKDIKPGNLLLTTGGTLKISDLGVAEALHPFAADDTCRTSQGSPAFQPPEIANGLDTFSGFKVDIWSAGVTLYNITTGLYPFEGDNIYKLFENIGKGSYAIPGDCGPPLSDLLKGMLEYEPAKRFSIRQIRQHSWFRKKHPPAEAPVPIPPSPDTKDRWRSMTVVPYLEDLHGADEDEDLFDIEDDIIYTQDFTVPGQDPEEEASHNGQRRGLPKAVCMNGTEAAQLSTKSRAEGRAPNPARKACSASSKIRRLSACKQQ [V372D] and MEVVDPQQLGMFTEGELMSVGMDTFIHRIDSTEVIYQPRRKRAKLIGKYLMGDLLGEGSYGKVKEVLDSETLCRRAVKILKKKKLRRIPNGEANVKKEIQLLRRLRHKNVIQLVDVLYNEEKQKMYMVMEYCVCGMQEMLDSVPEKRFPVCQAHGYFCQLIDGLEYLHSQGIVHKDIKPGNLLLTTGGTLKISDLGVAEALHPFAADDTCRTSQGSPAFQPPEIANGLDTFSGFKVDIWSAGVTLYNITTGLYPFEGDNIYKLFENIGKGSYAIPGDCGPPLSDLLKGMLEYEPAKRFSIRQIRQHSWFRKKHPPAEAPVPIPPSPDTKDRWRSMTVVPYLEDLHGADEDEDLFDIEDDIIYTQDFTVPGQEPEEEASHNGQRRGLPKAVCMNGTEAAQLSTKSRAEGRAPNPARKACSASSKIRRLSACKQQ [V372E] are within error of each other in STK11 functional score: 1.53 ± 0.33 for the first, 1.23 ± 0.38 for the second.

MEVVDPQQLGMFTEGELMSVGMDTFIHRIDSTEVIYQPRRKRAKLIGKYLMGDLLGEGSYGKVKEVLDSETLCRRAVKILKKKKLRRIPNGEANVKKEIQLLRRLRHKNVIQLVDVLYNEEKQKMYMVMEYCVCGMQEMLDSVPEKRFPVCQAHGYFCQLIDGLEYLHSQGIVHKDIKPGNLLLTTGGTLKISDLGVAEALHPFAADDTCRTSQGSPAFQPPEIANGLDTFSGFKVDIWSAGVTLYNITTGLYPFEGDNIYKLFENIGKGSYAIPGDCGPPLSDLLKGMLEYEPAKRFSIRQIRQHSWFRKKHPPAEAPVPIPPSPDTKDRWRSMTVVPYLEDLHGADEDEDLFDIEDDIIYTQDFTVPGQFPEEEASHNGQRRGLPKAVCMNGTEAAQLSTKSRAEGRAPNPARKACSASSKIRRLSACKQQ [V372F] and MEVVDPQQLGMFTEGELMSVGMDTFIHRIDSTEVIYQPRRKRAKLIGKYLMGDLLGEGSYGKVKEVLDSETLCRRAVKILKKKKLRRIPNGEANVKKEIQLLRRLRHKNVIQLVDVLYNEEKQKMYMVMEYCVCGMQEMLDSVPEKRFPVCQAHGYFCQLIDGLEYLHSQGIVHKDIKPGNLLLTTGGTLKISDLGVAEALHPFAADDTCRTSQGSPAFQPPEIANGLDTFSGFKVDIWSAGVTLYNITTGLYPFEGDNIYKLFENIGKGSYAIPGDCGPPLSDLLKGMLEYEPAKRFSIRQIRQHSWFRKKHPPAEAPVPIPPSPDTKDRWRSMTVVPYLEDLHGADEDEDLFDIEDDIIYTQDFTVPGQAPEEEASHNGQRRGLPKAVCMNGTEAAQLSTKSRAEGRAPNPARKACSASSKIRRLSACKQQ [V372A] are within error of each other in STK11 functional score: 1.12 ± 0.35 for the first, 1.48 ± 0.16 for the second.

Compared with MEVVDPQQLGMFTEGELMSVGMDTFIHRIDSTEVIYQPRRKRAKLIGKYLMGDLLGEGSYGKVKEVLDSETLCRRAVKILKKKKLRRIPNGEANVKKEIQLLRRLRHKNVIQLVDVLYNEEKQKMYMVMEYCVCGMQEMLDSVPEKRFPVCQAHGYFCQLIDGLEYLHSQGIVHKDIKPGNLLLTTGGTLKISDLGVAEALHPFAADDTCRTSQGSPAFQPPEIANGLDTFSGFKVDIWSAGVTLYNITTGLYPFEGDNIYKLFENIGKGSYAIPGDCGPPLSDLLKGMLEYEPAKRFSIRQIRQHSWFRKKHPPAEAPVPIPPSPDTKDRWRSMTVVPYLEDLHGADEDEDLFDIEDDIIYTQDFTVPGVVPEEEASHNGQRRGLPKAVCMNGTEAAQLSTKSRAEGRAPNPARKACSASSKIRRLSACKQQ [Q371V], MEVVDPQQLGMFTEGELMSVGMDTFIHRIDSTEVIYQPRRKRAKLIGKYLMGDLLGEGSYGKVKEVLDSETLCRRAVKILKKKKLRRIPNGEANVKKEIQLLRRLRHKNVIQLVDVLYNEEKQKMYMVMEYCVCGMQEMLDSVPEKRFPVCQAHGYFCQLIDGLEYLHSQGIVHKDIKPGNLLLTTGGTLKISDLGVAEALHPFAADDTCRTSQGSPAFQPPEIANGLDTFSGFKVDIWSAGVTLYNITTGLYPFEGDNIYKLFENIGKGSYAIPGDCGPPLSDLLKGMLEYEPAKRFSIRQIRQHSWFRKKHPPAEAPVPIPPSPDTKDRWRSMTVVPYLEDLHGADEDEDLFDIEDDIIYTQDFTVPGWVPEEEASHNGQRRGLPKAVCMNGTEAAQLSTKSRAEGRAPNPARKACSASSKIRRLSACKQQ [Q371W] is lower in STK11 functional score: 1.49 ± 0.2 for the first, 0.748 ± 0.14 for the second.

In the case of MEVVDPQQLGMFTEGELMSVGMDTFIHRIDSTEVIYQPRRKRAKLIGKYLMGDLLGEGSYGKVKEVLDSETLCRRAVKILKKKKLRRIPNGEANVKKEIQLLRRLRHKNVIQLVDVLYNEEKQKMYMVMEYCVCGMQEMLDSVPEKRFPVCQAHGYFCQLIDGLEYLHSQGIVHKDIKPGNLLLTTGGTLKISDLGVAEALHPFAADDTCRTSQGSPAFQPPEIANGLDTFSGFKVDIWSAGVTLYNITTGLYPFEGDNIYKLFENIGKGSYAIPGDCGPPLSDLLKGMLEYEPAKRFSIRQIRQHSWFRKKHPPAEAPVPIPPSPDTKDRWRSMTVVPYLEDLHGADEDEDLFDIEDDIIYTQDFTVPGYVPEEEASHNGQRRGLPKAVCMNGTEAAQLSTKSRAEGRAPNPARKACSASSKIRRLSACKQQ [Q371Y], the STK11 functional score is reported as 1.04 ± 0.54.
